Measured values: patent US12540174 (NASCENT BIOTECH, dated 2026)

What was measured:
[1] = biological target: T1, recombinant human vimentin (human, UniProt P08670 1-466, limits assumed); assay: BLI, Octet HTX, 25 C; pritumumab on anti-human-Fc (AHC) biosensors, recombinant human vimentin as analyte, 1:1 model
T1 construct: also called recombinant vimentin
Experimental: (§1) To determine binding affinity of the antibody Pritumumab for vimentin. Octet HTX was employed to measure the antibody binding to human vimentin. Binding experiments were performed on Octet HTX at 25° C. Pritumumab (10 ug/ml) was loaded onto Anti-Human-Fc (AHC) biosensors. Loaded sensors were dipped into a serial of antigen dilutions (recombinant human vimentin) (300 nM start, 1:3 down, 7 points). Kinetic constants were calculated using a monovalent (1:1) model.

[2] = biological target: T2, antigen of the potency binding ELISA of Example 1 (not named); assay: binding ELISA (potency assay), antigen not named; lot stored in glass serum containers
T2 construct: kept apart from m2 so as not to guess

[3] = biological target: T2, antigen of the potency binding ELISA of …; assay: binding (potency) ELISA, OD 450 nm against Log10 [mAb]; reference standard (tox) lot stored in PETG serum vial; coated antigen not named; the table cell has no unit, ug/ml is taken from the concentration axis
[4] = biological target: T2, antigen of the potency binding ELISA of …; assay: binding (potency) ELISA, OD 450 nm against Log10 [mAb]; reference standard (tox) lot stored in polypropylene cryovial 2; coated antigen not named; the table cell has no unit, ug/ml is taken from the concentration axis
[5] = biological target: T2, antigen of the potency binding ELISA of …; assay: binding ELISA, antigen not named; third lot (reference standard) stored in PETG serum vial
[6] = biological target: T2, antigen of the potency binding ELISA of …; assay: binding (potency) ELISA, OD 450 nm against Log10 [mAb]; reference standard (tox) lot stored in polypropylene cryovial 1; coated antigen not named; the table cell has no unit, ug/ml is taken from the concentration axis
[7] = biological target: T2, antigen of the potency binding ELISA of …; assay: binding (potency) ELISA, OD 450 nm against Log10 [mAb]; reference standard (tox) lot stored in polypropylene cryovial 3; coated antigen not named; the table cell has no unit, ug/ml is taken from the concentration axis
[8] = biological target: T2, antigen of the potency binding ELISA of …; assay: binding ELISA, antigen not named; third lot (reference standard) stored in polypropylene cryovials, 3 vials
[9] = biological target: T2, antigen of the potency binding ELISA of …; assay: binding (potency) ELISA, OD 450 nm against Log10 [mAb]; clinical drug substance lot stored in polypropylene cryovial; coated antigen not named
[10] = biological target: T1, recombinant human vimentin; assay: BLI, Octet HTX, 25 C; pritumumab on anti-human-Fc (AHC) biosensors, recombinant human vimentin as analyte (300 nM start, 1:3, 7 points), 1:1 model
Experimental: as §1

[11] = biological target: T2, antigen of the potency binding ELISA of …; assay: binding ELISA (potency assay), antigen not named; lot stored in PETG serum vial
[12] = biological target: T2, antigen of the potency binding ELISA of …; assay: binding ELISA (potency assay), antigen not named; lot stored in polypropylene cryovial

T1 sequence (P08670 whole entry): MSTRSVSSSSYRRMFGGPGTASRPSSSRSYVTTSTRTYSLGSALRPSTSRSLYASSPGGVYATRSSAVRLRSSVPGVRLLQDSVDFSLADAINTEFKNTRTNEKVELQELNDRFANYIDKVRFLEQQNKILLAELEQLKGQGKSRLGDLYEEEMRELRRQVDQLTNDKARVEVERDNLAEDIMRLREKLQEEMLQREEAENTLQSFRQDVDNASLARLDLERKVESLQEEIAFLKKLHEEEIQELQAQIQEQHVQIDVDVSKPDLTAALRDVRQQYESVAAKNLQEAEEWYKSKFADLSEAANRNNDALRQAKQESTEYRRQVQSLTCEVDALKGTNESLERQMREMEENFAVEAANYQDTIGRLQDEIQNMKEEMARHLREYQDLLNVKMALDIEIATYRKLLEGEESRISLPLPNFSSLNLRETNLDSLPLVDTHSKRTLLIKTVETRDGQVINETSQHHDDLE

koff [1]: 0.000443 s⁻¹ | kon [1]: 58700 M⁻¹ s⁻¹ | EC50 [2]: 8.25 µg/mL | EC50 [5]: 11 µg/mL | EC50 [8]: 37 to 40 µg/mL | EC50 [9]: 20.1 µg/mL | Kd [10]: 7.55 nM | EC50 [11]: 9.6 µg/mL | EC50 [12]: 20 µg/mL
B1: pritumumab (antibody, human IgG1, kappa, V domains shown)
VH: EVQLLESGGDLVQPGGSLRLSCAASGFTFSNYAMSWVRQAPGKGLEWVSAITPSGGSTNYADSVKGRFTISRDNSQNTLYLQMNSLRVEDTAVYICGRVPYRSTWYPLYWGQGTLVTVSS
VL: DIQMTQSPSSLSASVGDRVTITCRASQDISNYLAWFQQKPGKAPKSLIYAASSLHSKVPTQFSGSGSGTDFTLTISSLQPEDFATYYCLQYSTYPITFGGGTKVEIKR
notes: Several lots stored in different containers (glass, PETG, polypropylene) were tested; also called Pritumumab human monoclonal antibody
EC50 [3]: 11.4 µg/mL | EC50 [4]: 37.1 µg/mL | EC50 [6]: 38 µg/mL | EC50 [7]: 40.2 µg/mL
